Data from patent US20160159921A1.
pKd: −log10 of the molar value.

What was measured:
FcγRIIIa (F) variant = FcγRIIIa (F) variant (UniProt P08637); experiment: SPR (ProteOn XPR36), antibody captured on immobilized HER-2, FcγR as analyte, 1:1 Langmuir fit
FcγRIIb = FcγRIIb (UniProt P31994); experiment: as above
UniProt P31994, sequence (P31994 43-217 limits assumed): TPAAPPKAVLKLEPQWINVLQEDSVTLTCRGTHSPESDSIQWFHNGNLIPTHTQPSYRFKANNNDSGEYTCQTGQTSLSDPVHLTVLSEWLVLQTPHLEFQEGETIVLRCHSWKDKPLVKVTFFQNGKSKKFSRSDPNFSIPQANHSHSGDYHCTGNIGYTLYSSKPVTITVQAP

UniProt P08637, sequence (P08637 17-208 limits assumed, change not shown): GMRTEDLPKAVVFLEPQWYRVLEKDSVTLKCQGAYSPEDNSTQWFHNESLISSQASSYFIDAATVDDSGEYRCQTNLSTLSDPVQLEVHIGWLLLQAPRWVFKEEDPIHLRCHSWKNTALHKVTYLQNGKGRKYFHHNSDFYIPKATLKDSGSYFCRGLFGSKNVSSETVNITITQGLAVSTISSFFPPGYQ

pKd (FcγRIIIa (F) variant): 6.37 | pKd (FcγRIIb): 5.12
Substance: Trastuzumab variant G237F/S298A/A330L/I332E (antibody)
